Measured values as given in patent US20150344570A1 (published 2015).

T1: human FcγRIIb extracellular domain with C-terminal His tag (human, UniProt P31994 43-217)
T1 construct: extracellular domain; also called FcgRIIb; 2b; not shown: His tag attached to the C terminus
T1 sequence (looked up): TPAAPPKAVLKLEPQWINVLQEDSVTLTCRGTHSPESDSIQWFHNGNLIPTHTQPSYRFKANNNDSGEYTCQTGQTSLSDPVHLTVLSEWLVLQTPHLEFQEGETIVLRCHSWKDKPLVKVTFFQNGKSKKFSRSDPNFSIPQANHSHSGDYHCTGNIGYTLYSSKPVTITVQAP

B1: GpH7-B3 variant P331_04F/GpL16-k0 (Ho Ab) (antibody, human IgG1, kappa)
heavy: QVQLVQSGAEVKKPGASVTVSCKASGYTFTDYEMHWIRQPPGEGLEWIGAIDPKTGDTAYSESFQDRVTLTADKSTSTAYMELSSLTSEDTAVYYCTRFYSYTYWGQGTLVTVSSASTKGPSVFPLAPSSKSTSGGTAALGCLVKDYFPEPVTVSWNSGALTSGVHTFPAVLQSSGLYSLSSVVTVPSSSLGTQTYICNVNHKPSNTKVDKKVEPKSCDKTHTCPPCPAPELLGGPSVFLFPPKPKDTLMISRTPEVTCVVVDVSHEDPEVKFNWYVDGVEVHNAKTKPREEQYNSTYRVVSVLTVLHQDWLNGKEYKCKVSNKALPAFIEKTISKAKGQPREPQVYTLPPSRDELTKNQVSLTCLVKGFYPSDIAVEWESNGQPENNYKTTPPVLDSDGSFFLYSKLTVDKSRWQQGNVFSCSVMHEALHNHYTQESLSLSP
light: DIVMTQSPLSLPVTPGEPASISCQASESLVHSNRNTYLHWYLQKPGQSPQLLIYKVSNRFSGVPDRFSGSGSGTDFTLKISRVEAEDVGVYYCSQNTHVPPTFGQGTKVEIERTVAAPSVFIFPPSDEQLKSGTASVVCLLNNFYPREAKVQWKVDNALQSGNSQESVTEQDSKDSTYSLSSTLTLSKADYEKHKVYACEVTHQGLSSPVTKSFNRGEC
notes: Anti-glypican-3 IgG1; mutation in both H chains; also called P331F homodimerized antibody
B2: GpH7-A5/GpH7-B3 variant L328_03V/GpL16-k0 (He Ab) (antibody, human IgG1, kappa)
heavy 1: not shown
heavy 2: not shown
light: B1 light
notes: Anti-glypican-3 IgG1; mutation only in the GpH7-B3-derived H chain; also called L328V heterodimerized antibody
B3: GpH7-B3 variant S267_03V/GpL16-k0 (Ho Ab) (antibody, human IgG1, kappa)
heavy: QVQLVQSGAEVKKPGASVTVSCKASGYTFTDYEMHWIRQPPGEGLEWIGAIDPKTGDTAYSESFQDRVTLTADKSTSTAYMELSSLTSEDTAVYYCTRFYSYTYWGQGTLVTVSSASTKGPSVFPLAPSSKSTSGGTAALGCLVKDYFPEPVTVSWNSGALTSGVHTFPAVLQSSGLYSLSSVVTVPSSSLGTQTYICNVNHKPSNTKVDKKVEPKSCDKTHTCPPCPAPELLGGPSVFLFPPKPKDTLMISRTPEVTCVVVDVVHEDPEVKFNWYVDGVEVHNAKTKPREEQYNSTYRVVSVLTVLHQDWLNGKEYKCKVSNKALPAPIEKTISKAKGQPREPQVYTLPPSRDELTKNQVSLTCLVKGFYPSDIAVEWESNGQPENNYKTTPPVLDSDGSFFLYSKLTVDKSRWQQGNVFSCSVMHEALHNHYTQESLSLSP
light: B1 light
notes: Anti-glypican-3 IgG1; mutation in both H chains; also called S267V homodimerized antibody
B4: GpH7-A5/GpH7-B3 variant S337_14T/GpL16-k0 (He Ab) (antibody, human IgG1, kappa)
heavy 1: not shown
heavy 2: not shown
light: B1 light
notes: Anti-glypican-3 IgG1; mutation only in the GpH7-B3-derived H chain; also called S337T heterodimerized antibody
B5: GpH7-A5/GpH7-B3 variant T335_08L/GpL16-k0 (He Ab) (antibody, human IgG1, kappa)
heavy 1: not shown
heavy 2: not shown
light: B1 light
notes: Anti-glypican-3 IgG1; mutation only in the GpH7-B3-derived H chain; also called T335L heterodimerized antibody
B6: GpH7-A5/GpH7-B3 variant L328_06M/GpL16-k0 (He Ab) (antibody, human IgG1, kappa)
heavy 1: not shown
heavy 2: not shown
light: B1 light
notes: Anti-glypican-3 IgG1; mutation only in the GpH7-B3-derived H chain; also called L328M heterodimerized antibody
B7: GpH7-A5/GpH7-B3 variant K334_18N/GpL16-k0 (He Ab) (antibody, human IgG1, kappa)
heavy 1: not shown
heavy 2: not shown
light: B1 light
notes: Anti-glypican-3 IgG1; mutation only in the GpH7-B3-derived H chain; also called K334N heterodimerized antibody
B8: GpH7-A5/GpH7-B3 variant S239_07I/GpL16-k0 (He Ab) (antibody, human IgG1, kappa)
heavy 1: not shown
heavy 2: not shown
light: B1 light
notes: Anti-glypican-3 IgG1; mutation only in the GpH7-B3-derived H chain; also called S239I heterodimerized antibody
B9: GpH7-A5/GpH7-B3 variant S267_07I/GpL16-k0 (He Ab) (antibody, human IgG1, kappa)
heavy 1: not shown
heavy 2: not shown
light: B1 light
notes: Anti-glypican-3 IgG1; mutation only in the GpH7-B3-derived H chain; also called S267I heterodimerized antibody
B10: GpH7-A5/GpH7-B3 variant L328_04F/GpL16-k0 (He Ab) (antibody, human IgG1, kappa)
heavy 1: not shown
heavy 2: not shown
light: B1 light
notes: Anti-glypican-3 IgG1; mutation only in the GpH7-B3-derived H chain; also called L328F heterodimerized antibody
B11: GpH7-A5/GpH7-B3 variant S267_03V/GpL16-k0 (He Ab) (antibody, human IgG1, kappa)
heavy 1: not shown
heavy 2: not shown
light: B1 light
notes: Anti-glypican-3 IgG1; mutation only in the GpH7-B3-derived H chain; also called S267V heterodimerized antibody
B12: GpH7-A5/GpH7-B3 variant S267_08L/GpL16-k0 (He Ab) (antibody, human IgG1, kappa)
heavy 1: not shown
heavy 2: not shown
light: B1 light
notes: Anti-glypican-3 IgG1; mutation only in the GpH7-B3-derived H chain; also called S267L heterodimerized antibody
B13: GpH7-A5/GpH7-B3 variant S239_18N/GpL16-k0 (He Ab) (antibody, human IgG1, kappa)
heavy 1: not shown
heavy 2: not shown
light: B1 light
notes: Anti-glypican-3 IgG1; mutation only in the GpH7-B3-derived H chain; also called S239N heterodimerized antibody
B14: GpH7-B3 variant S337_14T/GpL16-k0 (Ho Ab) (antibody, human IgG1, kappa)
heavy: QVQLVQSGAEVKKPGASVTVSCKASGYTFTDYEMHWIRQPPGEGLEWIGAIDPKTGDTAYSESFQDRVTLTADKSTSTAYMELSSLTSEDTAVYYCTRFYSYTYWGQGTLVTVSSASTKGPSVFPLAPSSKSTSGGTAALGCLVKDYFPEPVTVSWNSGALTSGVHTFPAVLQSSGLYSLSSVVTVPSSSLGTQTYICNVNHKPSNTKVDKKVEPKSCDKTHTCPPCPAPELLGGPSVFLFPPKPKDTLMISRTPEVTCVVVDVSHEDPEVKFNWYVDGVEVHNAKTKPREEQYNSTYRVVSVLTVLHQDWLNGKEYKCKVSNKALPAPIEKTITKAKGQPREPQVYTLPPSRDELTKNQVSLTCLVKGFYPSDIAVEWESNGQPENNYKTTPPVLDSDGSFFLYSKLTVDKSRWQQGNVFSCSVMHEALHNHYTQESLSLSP
light: B1 light
notes: Anti-glypican-3 IgG1; mutation in both H chains; also called S337T homodimerized antibody
B15: GpH7-B3 variant S239_07I/GpL16-k0 (Ho Ab) (antibody, human IgG1, kappa)
heavy: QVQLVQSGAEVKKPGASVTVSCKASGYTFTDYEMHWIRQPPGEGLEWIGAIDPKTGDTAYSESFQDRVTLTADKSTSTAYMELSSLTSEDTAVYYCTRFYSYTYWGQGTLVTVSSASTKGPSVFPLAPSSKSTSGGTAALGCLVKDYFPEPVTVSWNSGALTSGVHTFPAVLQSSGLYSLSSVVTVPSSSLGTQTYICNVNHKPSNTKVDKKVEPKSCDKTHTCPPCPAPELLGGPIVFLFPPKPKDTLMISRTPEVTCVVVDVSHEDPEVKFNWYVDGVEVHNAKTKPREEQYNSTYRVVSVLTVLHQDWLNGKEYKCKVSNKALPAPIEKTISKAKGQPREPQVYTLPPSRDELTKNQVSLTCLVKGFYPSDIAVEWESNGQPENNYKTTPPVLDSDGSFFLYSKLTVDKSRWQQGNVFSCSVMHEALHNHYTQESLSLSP
light: B1 light
notes: Anti-glypican-3 IgG1; mutation in both H chains; also called S239I homodimerized antibody
B16: GpH7-B3 variant T335_04F/GpL16-k0 (Ho Ab) (antibody, human IgG1, kappa)
heavy: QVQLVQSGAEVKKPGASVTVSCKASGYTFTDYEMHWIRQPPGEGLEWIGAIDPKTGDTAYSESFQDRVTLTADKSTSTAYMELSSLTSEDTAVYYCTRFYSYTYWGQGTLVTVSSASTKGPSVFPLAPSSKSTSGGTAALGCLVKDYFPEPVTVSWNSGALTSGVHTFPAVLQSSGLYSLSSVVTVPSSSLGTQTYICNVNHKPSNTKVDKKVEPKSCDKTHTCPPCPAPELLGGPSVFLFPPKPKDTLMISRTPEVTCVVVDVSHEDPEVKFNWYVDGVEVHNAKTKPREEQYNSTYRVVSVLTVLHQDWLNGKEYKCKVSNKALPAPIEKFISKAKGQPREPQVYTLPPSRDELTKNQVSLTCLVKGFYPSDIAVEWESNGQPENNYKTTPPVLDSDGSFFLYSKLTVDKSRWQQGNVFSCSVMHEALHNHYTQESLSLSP
light: B1 light
notes: Anti-glypican-3 IgG1; mutation in both H chains; also called T335F homodimerized antibody
B17: GpH7-B3 variant S267_02A/GpL16-k0 (Ho Ab) (antibody, human IgG1, kappa)
heavy: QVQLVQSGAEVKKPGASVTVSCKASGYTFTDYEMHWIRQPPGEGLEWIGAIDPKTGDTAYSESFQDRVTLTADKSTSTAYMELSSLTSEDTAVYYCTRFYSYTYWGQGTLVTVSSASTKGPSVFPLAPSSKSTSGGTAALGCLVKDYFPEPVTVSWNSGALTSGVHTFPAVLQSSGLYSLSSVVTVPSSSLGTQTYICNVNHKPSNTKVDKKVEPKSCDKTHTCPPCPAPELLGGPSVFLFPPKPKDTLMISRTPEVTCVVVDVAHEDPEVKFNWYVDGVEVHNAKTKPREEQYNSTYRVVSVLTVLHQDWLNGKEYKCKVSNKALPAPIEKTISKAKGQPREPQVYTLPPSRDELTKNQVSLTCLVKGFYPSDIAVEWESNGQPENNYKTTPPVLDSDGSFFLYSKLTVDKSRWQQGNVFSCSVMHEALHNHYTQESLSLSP
light: B1 light
notes: Anti-glypican-3 IgG1; mutation in both H chains; also called S267A homodimerized antibody
B18: GpH7-B3 variant S239_01G/GpL16-k0 (Ho Ab) (antibody, human IgG1, kappa)
heavy: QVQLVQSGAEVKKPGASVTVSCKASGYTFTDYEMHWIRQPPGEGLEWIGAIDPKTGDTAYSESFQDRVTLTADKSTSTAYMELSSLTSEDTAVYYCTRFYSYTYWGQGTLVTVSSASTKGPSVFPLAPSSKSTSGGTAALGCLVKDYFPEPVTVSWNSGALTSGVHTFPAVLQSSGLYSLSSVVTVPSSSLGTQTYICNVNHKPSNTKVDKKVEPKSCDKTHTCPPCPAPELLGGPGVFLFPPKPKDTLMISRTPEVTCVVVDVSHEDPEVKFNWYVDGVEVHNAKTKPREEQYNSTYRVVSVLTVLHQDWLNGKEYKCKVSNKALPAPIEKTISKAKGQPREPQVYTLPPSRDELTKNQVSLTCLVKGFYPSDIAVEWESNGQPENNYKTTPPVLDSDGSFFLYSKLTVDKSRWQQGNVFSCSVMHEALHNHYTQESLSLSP
light: B1 light
notes: Anti-glypican-3 IgG1; mutation in both H chains; also called S239G homodimerized antibody
B19: GpH7-A5/GpH7-B3 variant K334_16H/GpL16-k0 (He Ab) (antibody, human IgG1, kappa)
heavy 1: not shown
heavy 2: not shown
light: B1 light
notes: Anti-glypican-3 IgG1; mutation only in the GpH7-B3-derived H chain; also called K334H heterodimerized antibody
B20: GpH7-A5/GpH7-B3 variant S337_10E/GpL16-k0 (He Ab) (antibody, human IgG1, kappa)
heavy 1: not shown
heavy 2: not shown
light: B1 light
notes: Anti-glypican-3 IgG1; mutation only in the GpH7-B3-derived H chain; also called S337E heterodimerized antibody
B21: GpH7-A5/GpH7-B3 variant S239_09D/GpL16-k0 (He Ab) (antibody, human IgG1, kappa)
heavy 1: not shown
heavy 2: not shown
light: B1 light
notes: Anti-glypican-3 IgG1; mutation only in the GpH7-B3-derived H chain; also called S239D heterodimerized antibody
B22: GpH7-A5/GpH7-B3 variant P271_01G/GpL16-k0 (He Ab) (antibody, human IgG1, kappa)
heavy 1: not shown
heavy 2: not shown
light: B1 light
notes: Anti-glypican-3 IgG1; mutation only in the GpH7-B3-derived H chain; also called P271G heterodimerized antibody
B23: GpH7-A5/GpH7-B3 variant T335_09D/GpL16-k0 (He Ab) (antibody, human IgG1, kappa)
heavy 1: not shown
heavy 2: not shown
light: B1 light
notes: Anti-glypican-3 IgG1; mutation only in the GpH7-B3-derived H chain; also called T335D heterodimerized antibody
B24: GpH7-A5/GpH7-B3 variant P331_04F/GpL16-k0 (He Ab) (antibody, human IgG1, kappa)
heavy 1: not shown
heavy 2: not shown
light: B1 light
notes: Anti-glypican-3 IgG1; mutation only in the GpH7-B3-derived H chain; also called P331F heterodimerized antibody
B25: GpH7-A5/GpH7-B3 variant S239_01G/GpL16-k0 (He Ab) (antibody, human IgG1, kappa)
heavy 1: not shown
heavy 2: not shown
light: B1 light
notes: Anti-glypican-3 IgG1; mutation only in the GpH7-B3-derived H chain; also called S239G heterodimerized antibody
B26: GpH7-A5/GpH7-B3 variant L328_14T/GpL16-k0 (He Ab) (antibody, human IgG1, kappa)
heavy 1: not shown
heavy 2: not shown
light: B1 light
notes: Anti-glypican-3 IgG1; mutation only in the GpH7-B3-derived H chain; also called L328T heterodimerized antibody
B27: GpH7-B3 variant S267_10E/GpL16-k0 (Ho Ab) (antibody, human IgG1, kappa)
heavy: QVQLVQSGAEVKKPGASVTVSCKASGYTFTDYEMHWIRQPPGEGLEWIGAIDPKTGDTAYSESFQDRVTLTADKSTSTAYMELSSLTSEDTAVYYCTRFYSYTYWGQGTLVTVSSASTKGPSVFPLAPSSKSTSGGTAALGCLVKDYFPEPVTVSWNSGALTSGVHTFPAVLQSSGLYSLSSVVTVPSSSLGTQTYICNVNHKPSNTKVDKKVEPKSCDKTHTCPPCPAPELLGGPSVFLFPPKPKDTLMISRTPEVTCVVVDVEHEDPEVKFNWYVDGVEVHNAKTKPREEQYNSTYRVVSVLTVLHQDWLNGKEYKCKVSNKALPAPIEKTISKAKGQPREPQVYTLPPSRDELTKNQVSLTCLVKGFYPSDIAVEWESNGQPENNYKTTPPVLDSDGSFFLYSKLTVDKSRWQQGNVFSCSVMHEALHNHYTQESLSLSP
light: B1 light
notes: Anti-glypican-3 IgG1; mutation in both H chains; also called S267E homodimerized antibody
B28: GpH7-A5/GpH7-B3 variant S267_09D/GpL16-k0 (He Ab) (antibody, human IgG1, kappa)
heavy 1: not shown
heavy 2: not shown
light: B1 light
notes: Anti-glypican-3 IgG1; mutation only in the GpH7-B3-derived H chain; also called S267D heterodimerized antibody

Target: T1, human FcγRIIb extracellular domain with …
Assay: SPR (Biacore T100), antibody captured on antigen peptide chip, FcγRIIb as analyte; relative binding
Procedure: Analysis of interaction between objective antibody and the FcγR was carried out using Biacore T100 (GE Healthcare). HBS-EP+ (GE Healthcare) was used as the running buffer, and the measurement temperature was set to 25° C. Chips produced by immobilizing the antigen peptide by the amine coupling method to a Series S Sencor Chip CM5 (GE Healthcare), or alternatively, chips produced by allowing preliminarily biotinylated antigen peptides to interact with and immobilize onto a Series S Sensor Chip SA (certified) (GE Healthcare) were used. Antibodies of interest were captured onto an antigen peptide-immobilized chip, and allowed to interact to each FcγR diluted with running buffer. To regenerate and repeatedly use the chip, the antibodies captured on the chip were washed off by reacting 10 mM glycine-HCl, pH 1.5.

Binder	Ho/Con_2b	He/Con_2b
B1	113 % of control GpH7-B3/GpL16-k0 (=100)	
B2		126 % of control GpH7-A5/GpH7-B3/GpL16-k0 (=100)
B3	206 % of control GpH7-B3/GpL16-k0 (=100)	
B4		105 % of control GpH7-A5/GpH7-B3/GpL16-k0 (=100)
B5		104 % of control GpH7-A5/GpH7-B3/GpL16-k0 (=100)
B6		142 % of control GpH7-A5/GpH7-B3/GpL16-k0 (=100)
B7		115 % of control GpH7-A5/GpH7-B3/GpL16-k0 (=100)
B8		107 % of control GpH7-A5/GpH7-B3/GpL16-k0 (=100)
B9		192 % of control GpH7-A5/GpH7-B3/GpL16-k0 (=100)
B10		219 % of control GpH7-A5/GpH7-B3/GpL16-k0 (=100)
B11		192 % of control GpH7-A5/GpH7-B3/GpL16-k0 (=100)
B12		109 % of control GpH7-A5/GpH7-B3/GpL16-k0 (=100)
B13		119 % of control GpH7-A5/GpH7-B3/GpL16-k0 (=100)
B14	110 % of control GpH7-B3/GpL16-k0 (=100)	
B15	108 % of control GpH7-B3/GpL16-k0 (=100)	
B16	107 % of control GpH7-B3/GpL16-k0 (=100)	
B17	274 % of control GpH7-B3/GpL16-k0 (=100)	
B18	174 % of control GpH7-B3/GpL16-k0 (=100)	
B19		113 % of control GpH7-A5/GpH7-B3/GpL16-k0 (=100)
B20		107 % of control GpH7-A5/GpH7-B3/GpL16-k0 (=100)
B21		206 % of control GpH7-A5/GpH7-B3/GpL16-k0 (=100)
B22		193 % of control GpH7-A5/GpH7-B3/GpL16-k0 (=100)
B23		108 % of control GpH7-A5/GpH7-B3/GpL16-k0 (=100)
B24		110 % of control GpH7-A5/GpH7-B3/GpL16-k0 (=100)
B25		144 % of control GpH7-A5/GpH7-B3/GpL16-k0 (=100)
B26		141 % of control GpH7-A5/GpH7-B3/GpL16-k0 (=100)
B27	396 % of control GpH7-B3/GpL16-k0 (=100)	
B28		310 % of control GpH7-A5/GpH7-B3/GpL16-k0 (=100)
